Read-outs that look alike come from different tables or passages of the source.

The values that follow come from patent US20220242946A1 (Johns Hopkins, published 2022).

For assay [1], the target named is T1, biotinylated human IL-2 immobilized on streptavidin-coated tips (human, UniProt P60568 21-153, biotinylated (site not stated)).
T1 construct: The construct used for biotinylated hIL-2 is not described; probably as the soluble hIL-2 (residues 1-133) with tags; also called biotinylated hIL-2; immobilized hIL-2; not shown: tags of the biotinylated hIL-2 are not described (the biotin acceptor peptide is told only for hIL-2Ra and hIL-2Rb)
The assay can be described thus: bio-layer interferometry equilibrium titration, biotinylated hIL-2 on streptavidin tips. How it is done:
(§1) Less than 5 signal units (nm) of receptor was immobilized to minimize mass transfer effects. […] Surface regeneration for all interactions was conducted using a 15 second exposure to 0.1 M glycine pH 3.0. Experiments were carried out in PB SA (phosphate-buffered saline, pH 7.3 plus 0.1% bovine serum albumin (BSA, Thermo Fisher Scientific)) at 25° C. Data was visualized and processed using the Octet® Data Analysis software version 7.1 (Molecular Devices). Equilibrium titration curve fitting and KD value determination was implemented using GraphPad Prism, assuming all binding interactions to be first order.

Assay [2] addresses T1, biotinylated human IL-2 immobilized on …. The assay is described as above. How it is done:
as §1
This is another data set of the same source.

Assay [3] addresses human IL-2 (residues 1-133) displayed on the surface of yeast (human, UniProt P60568 21-153). Kind of assay: titration of soluble antibody on yeast-displayed hIL-2, flow cytometry; apparent bivalent affinity. How it is done: After a final wash, cells were analyzed for antibody binding using a CytoFLEX flow cytometer (Beckman Coulter). Background-subtracted and normalized binding curves were fitted to a first-order binding model and equilibrium dissociation constant (KD) values were determined using GraphPad Prism.
After a 3-day incubation, secreted protein was captured from the supernatant with protein G resin, eluted with 0.1 M glycine pH 2.0, and analyzed via SDS-PAGE. […] Immunocytokine expression was scaled up in HEK 293F cells and the secreted protein was purified via protein G affinity chromatography followed by size-exclusion chromatography.

T1 sequence (P60568 21-153): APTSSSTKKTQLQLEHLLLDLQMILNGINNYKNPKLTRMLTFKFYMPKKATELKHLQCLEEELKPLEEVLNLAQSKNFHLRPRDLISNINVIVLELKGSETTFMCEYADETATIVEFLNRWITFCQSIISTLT
human IL-2 (residues 1-133) displayed on the surface of yeast, sequence (P60568 21-153 limits assumed): as the sequence (P60568 21-153) above

B1: recombinant F5111 antibody (human IgG1 lambda) (antibody, V domains shown)
VH: QLQLQESGPGLVKPSQTLSLTCTVSGGSISSGGYYWSWIRQHPGKGLEWIGYIYYSGSTYYNPSLKSRVTISVDTSKNQFSLKLSSVTAADTAVYYCARTPTVTGDWFDPWGRGTLVTVSS
VL: SNFMLTQPHSVSESPGKTVTISCTRSSGSIASNYVQWYQQRPGSSPTTVIYEDNQRPSGVPDRFSGSIDSSSNSASLTISGLKTEDEADYYCQSYDSSNVVFGGGTKLTVLG
notes: Expressed in HEK 293F cells; also called F5111 Ab; monoclonal antibody F5111
In the case of B1, the “EC50 (read off the curve)” value was around 3 nM in assay [1] and around 0.6 nM in assay [2]. For the same molecule, the Kd in assay [3] stood at 0.42 nM.
